Assay results published in the supplement of paper PMC10724198.
± gives the standard deviation of the averaged measurements.

test system: Saccharomyces cerevisiae; experiment: protein stability index of tFT-peptide fusion (C-terminal peptide) (PSI (0-1 scale)); higher = more stable (slower turnover); conditions: genetic background: wild type; temperature: 30 C
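Also: PSI is a weighted mean of sequencing reads over stability bins, variants kept only with over 10 reads, mCherry proximal and sfGFP distal, peptide attached via GGGS linker.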

Point of comparison: EECSYERRRTRE, protein stability index 0.8059 ± 0.0017. Against it:
- PPRRPSPPSPHP — lower, 0.67196 ± 0.00055
- RNYQKAKENMKL — lower, 0.585 ± 0.14
- APGPCSAPSCGA — lower, 0.67 ± 0.013
- EMPQNSKKNQAA — lower, 0.672 ± 0.06
- RPGYDRNRTGMI — within error, 0.738 ± 0.073
- PPPPPTPTPPYR — lower, 0.6952 ± 0.0014
- FDMYACCQRGAV — lower, 0.6639 ± 0.0027
- RGLRIFMSRAWH — lower, 0.75 ± 0.043
- AGGLGSGGSRER — lower, 0.6612 ± 0.0024
- APPLQLSSPPPS — lower, 0.746 ± 0.051
- FSRAFLDRVIVS — lower, 0.713 ± 0.04
- RCTRAAGLAAPA — lower, 0.691 ± 0.0088
- PPSLPPLPFSTP — lower, 0.7352 ± 0.0065
- KKKKQKNNRKKP — lower, 0.574 ± 0.059
- SVKGRVPLYVSE — lower, 0.658 ± 0.042
- PPEPRPLPDAPP — lower, 0.5977 ± 0.0052
- VLHFIFLCRCPV — lower, 0.497 ± 0.011
- SPPWGQGSVSSK — lower, 0.729 ± 0.052
- RSEGEGGKGKRE — lower, 0.687 ± 0.019
- KKKLEIKIEKRE — lower, 0.644 ± 0.042
- LCVGVGAAIRLW — lower, 0.598 ± 0.039
- LARGGASIGGES — lower, 0.701 ± 0.015
- ARAAHLASRGLP — lower, 0.689 ± 0.037
- PRRQDSRLEQPD — lower, 0.713 ± 0.0077
- AGCGGIWGLWVL — lower, 0.723 ± 0.05
- PSGGAVEGMGGE — lower, 0.668 ± 0.059
- RPKTLGNAREEG — lower, 0.708 ± 0.039
- GLDEGCRVGEEV — lower, 0.643 ± 0.013
- LPQVKLGRIYTY — lower, 0.683 ± 0.032
- HFPLRIYSPNGP — lower, 0.697 ± 0.095
- GPGRGWQGGPKL — lower, 0.739 ± 0.023
- GELADVVWLGGE — lower, 0.652 ± 0.057
- GGGGGISGGRWG — lower, 0.667 ± 0.075
- VLICGLNYLSLC — lower, 0.64 ± 0.022
- GGYSNRNVEVIV — lower, 0.6323 ± 0.003
- RLTEVRVTLGSL — lower, 0.711 ± 0.082
- YEQLSGHPPVVR — lower, 0.7236 ± 0.0014
- PLPTGTQPTRHR — lower, 0.669 ± 0.0079
- VFADHPSMHILS — lower, 0.72 ± 0.021
- LRLECESIKRYT — lower, 0.61 ± 0.055
- PPPLPPPCSAPP — lower, 0.736 ± 0.012
- ITTLGSVSRDSR — lower, 0.722 ± 0.062
- YPIRPRYSPAGN — lower, 0.721 ± 0.043
- PQSKWQWHSGLT — lower, 0.692 ± 0.065
- PPTFPPHSYLHP — lower, 0.652 ± 0.043
- VMWNLVCLRRSQ — lower, 0.6271 ± 0.0012
- LGGGAGKRVCEG — lower, 0.685 ± 0.014
- AVTLAPPRLRPL — lower, 0.761 ± 0.029
- DGCVTVDIRRGV — lower, 0.733 ± 0.016
- VTPLPHPPLPPP — within error, 0.756 ± 0.089
- VSGCVCAAADVL — lower, 0.696 ± 0.027
- GINFEIKFKRYN — within error, 0.764 ± 0.055
- CSKLYGAFANTF — lower, 0.644 ± 0.1
- GSVTIDSMIHMR — lower, 0.667 ± 0.037
- TPPRVYPLLRTS — lower, 0.682 ± 0.016
- PSVSPVRLPYLL — lower, 0.687 ± 0.035
- WSIWRLPSFEWV — lower, 0.741 ± 0.04
- VVVLGVGGVGWW — lower, 0.704 ± 0.019
- PCSPLSLPPPFP — lower, 0.722 ± 0.0073
- RSGRCWSFPFSV — lower, 0.703 ± 0.026
- EQFQLCAREVAK — within error, 0.761 ± 0.047
- SKRIKIEFYVNQ — within error, 0.688 ± 0.12
- VIGEWWPVSGQH — lower, 0.718 ± 0.014
- SLLPPSPPPSRL — lower, 0.724 ± 0.066
- RLTKTRNDLRSL — lower, 0.654 ± 0.016
- FPRSCETPARAL — lower, 0.6607 ± 0.0043
- DIYGYENNIIKN — lower, 0.708 ± 0.013
- DLYLETSCSIGG — lower, 0.6723 ± 0.0032
- TRNTNYNKKIKV — lower, 0.6801 ± 0.0022
- GRGLVSWEAGGV — lower, 0.716 ± 0.018
- PIPSPYYPPTFC — within error, 0.73 ± 0.11
- PVHPPAPHPSPP — lower, 0.663 ± 0.037
- VGSSRWRHVGRR — lower, 0.6742 ± 0.0063
- PPFPPPPPPSPS — within error, 0.751 ± 0.07
- LLTWENWVVPRL — lower, 0.738 ± 0.053
- QRGGEGWILGGV — lower, 0.687 ± 0.026
- WCWVGRFVGLVR — lower, 0.447 ± 0.11
- DGGTSGGGVPVP — lower, 0.637 ± 0.054
- LLIHLKDFYCFV — higher, 0.855 ± 0.019
- SPPALPRPPRRP — lower, 0.708 ± 0.044
- LTLGSSGTSFLS — lower, 0.698 ± 0.016
- FCLFTYIPSSCL — lower, 0.664 ± 0.035
- TGYDERSRFIEI — lower, 0.68 ± 0.1
- PNLKLSPKWAKP — lower, 0.67 ± 0.063
- VNTISRKIPPIA — lower, 0.648 ± 0.041
- LSSPPAPPPPPR — within error, 0.677 ± 0.13
- PPPPPTPPSSTP — lower, 0.713 ± 0.068
- TTGGRGARVGGR — within error, 0.755 ± 0.08
- LLPLPPPPLFLP — lower, 0.705 ± 0.011
- AEVRRQEGTVGV — lower, 0.707 ± 0.036
- PRTPPQQEPRRP — lower, 0.709 ± 0.054
- SLTCRKQTVRVI — lower, 0.53 ± 0.012
- QIGKQAAATGTA — lower, 0.708 ± 0.049
- THSLCIKPRTVV — lower, 0.517 ± 0.0056
- RSLDEPCGFFRP — lower, 0.637 ± 0.023
- GLIATWMYKFVF — lower, 0.617 ± 0.038
- GVLGSIQLFLGI — lower, 0.699 ± 0.0091
- KKKNKKEDKRKK — lower, 0.6942 ± 0.0031
- TRDVPVTPQWGY — lower, 0.671 ± 0.076
- GKARLATGESAL — lower, 0.674 ± 0.031
- KLILGGSRGIMD — lower, 0.646 ± 0.014
- SLNQWTGTTLRQ — lower, 0.66 ± 0.02
- RCIASHRLSLRT — lower, 0.682 ± 0.037
- KTGRPSRRGSTT — lower, 0.704 ± 0.036
- SSCTRLSILVWF — lower, 0.52 ± 0.0056
- HLPSPSLPSPYF — lower, 0.7648 ± 0.0017
- PSFSPLPLPSIV — lower, 0.728 ± 0.039
- FRSGRLSPPAPS — lower, 0.692 ± 0.0028
- LIENVGDLETSR — lower, 0.665 ± 0.059
- RTHTAALCRTHS — lower, 0.7047 ± 0.0057
- TSHSSSGQAGKI — lower, 0.73 ± 0.033
- GGVGGASMSGTP — lower, 0.674 ± 0.037
- PASDPPHRDPPH — lower, 0.658 ± 0.019
- GWIAEFGLAGGP — lower, 0.661 ± 0.0089
- SHDLASRQSAFR — lower, 0.648 ± 0.059
- HFVAALVLLTLD — within error, 0.72 ± 0.17
- WSKEQRRGGCGQ — lower, 0.714 ± 0.015
- PRRFPPPSPSPP — lower, 0.713 ± 0.085
- CTICQLASKAIC — lower, 0.599 ± 0.04
- PSSPPDLAFRPP — lower, 0.6157 ± 0.0049
- ERPRRDTTVSDT — lower, 0.653 ± 0.0083
- FSPYLYNIRTSL — lower, 0.612 ± 0.024
- PPLPPPPPPVPA — lower, 0.681 ± 0.036
- LHCKRPTPLTDS — lower, 0.657 ± 0.019
- LIRGVVVGLDGD — lower, 0.685 ± 0.021
- EYGSWIRTASRV — lower, 0.726 ± 0.016
- PTGSHARRRPRR — lower, 0.65 ± 0.023
- PPPLPLVPPSPP — lower, 0.651 ± 0.033
- GRWRRWSSEGLG — lower, 0.684 ± 0.026
- LVSLGLHAGKRI — lower, 0.70514 ± 0.0004
- LLSPPPTPFPLP — lower, 0.666 ± 0.061
- APPPPPPPCAPS — lower, 0.657 ± 0.043
- EVEGGLSFSARG — lower, 0.706 ± 0.074
- PTQPVPPRTPHY — lower, 0.6698 ± 0.0051
- KEKKAKKSRKKR — lower, 0.665 ± 0.084
- PPAPRPSTRHTP — lower, 0.74 ± 0.013
- SPSPLSHSPLAF — lower, 0.647 ± 0.009
- GFSSVPFFPLSR — lower, 0.7142 ± 0.003
- RLFFSRSVRSFF — lower, 0.529 ± 0.017
- PQSPVCDLESRL — lower, 0.666 ± 0.11
- MIRVRGRQKIEG — within error, 0.724 ± 0.13
- QPVGAAQWGSQS — lower, 0.715 ± 0.028
- RNQQQENNKQSK — lower, 0.694 ± 0.016
- KVAECGYGTSWV — lower, 0.724 ± 0.013
- WVRIGVEFGWGE — lower, 0.689 ± 0.11
- RKSSLVARTGMI — lower, 0.623 ± 0.071
- PCSVPHSGSAPA — lower, 0.712 ± 0.044
- IGLPCSSGCCCH — lower, 0.702 ± 0.088
- GGGPGRGVWVRV — lower, 0.705 ± 0.021
- RFAFLPPPPLPP — lower, 0.636 ± 0.011
- LPFFFPRLFSPP — lower, 0.691 ± 0.061
- VGESGEGVVMGE — lower, 0.677 ± 0.08
- VFPRVFGFGVCI — lower, 0.716 ± 0.054
- GRVGFSRSFKCC — lower, 0.641 ± 0.14
- FQPTYCVHKQNK — lower, 0.722 ± 0.024
- PLAWSAPCRPHT — lower, 0.73 ± 0.029
- KKKKKKKSTKRN — lower, 0.713 ± 0.037
- FPSASPPFLPTP — lower, 0.705 ± 0.037
- PPPPPLLAPSPL — lower, 0.671 ± 0.07
- APRLIALPPPTA — within error, 0.711 ± 0.11
- GVRDGGTRGSEG — lower, 0.7012 ± 0.0055
- GICIVGGCGCVG — lower, 0.612 ± 0.068
- IMGIIKFKSYRI — within error, 0.703 ± 0.12
- AWLLWGPVLRGI — lower, 0.694 ± 0.051
- IGSLASRSALLL — lower, 0.676 ± 0.0083
- PPAPSPLPPPPF — lower, 0.756 ± 0.03
- PLGQGRRRPPDA — within error, 0.732 ± 0.1
- PPPPPPPLTSLP — lower, 0.7175 ± 0.0013
- GGREWRGGQGEV — lower, 0.669 ± 0.12
- GGGGGGPSGGSG — lower, 0.701 ± 0.079
- YPHPPRPSNQLF — lower, 0.615 ± 0.0079
- LIILKNKRKNKI — lower, 0.704 ± 0.04
- RTLHKKRLLAHR — lower, 0.693 ± 0.041
- AGRGGRAGGGWR — lower, 0.668 ± 0.015
- LVSACIRFPPSH — lower, 0.716 ± 0.079
- CASPLHPCPKST — lower, 0.6542 ± 0.0023
- TSRLPPSPPPPP — within error, 0.696 ± 0.14
- PRPPRSPLPSSL — lower, 0.7 ± 0.041
- PAHSTEVVPRVL — lower, 0.717 ± 0.018
- VVGAGGLCNMDV — lower, 0.635 ± 0.029
- LCANDRGVAALA — lower, 0.683 ± 0.046
- GGFSLTGSLCID — lower, 0.687 ± 0.035
- ATSFSLLPACFS — lower, 0.686 ± 0.0007
- RWVEGVWGVWCG — lower, 0.757 ± 0.042
- TNFGALNFDYAC — lower, 0.772 ± 0.028
- PRCCDIEIESGR — lower, 0.68 ± 0.027
- GGGGRWGVLVLG — lower, 0.504 ± 0.0062
- YVSSYILPVTRV — lower, 0.603 ± 0.045
- VVTEKLKRAARA — lower, 0.669 ± 0.021
- PHLESVRYGLFS — lower, 0.709 ± 0.02
- GFWESLGGVGAE — lower, 0.697 ± 0.049
- CCPVTLLLPFPL — lower, 0.606 ± 0.01
- CGWAWGWRESKM — within error, 0.723 ± 0.1
- FYPHFCAHTRPH — lower, 0.7265 ± 0.0054
- PPLRPPPPLPVP — lower, 0.663 ± 0.054
- TYRLPLLAPAPR — lower, 0.688 ± 0.0097
- PFSPPPGPPPPP — lower, 0.6806 ± 0.0034
- STPRTPNFPATA — lower, 0.706 ± 0.019
- IGYHGRSLGWKR — lower, 0.635 ± 0.082
- QERWGRGWGTRG — lower, 0.709 ± 0.072
- LFGFSPAPVSFG — within error, 0.733 ± 0.073
